Laboratory results as given in publication PMC8123688.

Molecular target: TSH receptor (TSHR) on human ML-1 cells (human (endogenous in ML-1)) (UniProt P16473)
Assay: radioligand binding; real-time kinetic binding assay with LigandTracer; 10^6 ML-1 cells seeded in a tilted Petri dish; 2 mL of 30 nM radiolabeled ligand in culture medium for 1 h, then medium without ligand to follow release; Kd from binding/release curve (GraphPad Prism)

Chain of TSH receptor (TSHR) on human ML-1 cells (human (endogenous in ML-1)) (P16473 21-764): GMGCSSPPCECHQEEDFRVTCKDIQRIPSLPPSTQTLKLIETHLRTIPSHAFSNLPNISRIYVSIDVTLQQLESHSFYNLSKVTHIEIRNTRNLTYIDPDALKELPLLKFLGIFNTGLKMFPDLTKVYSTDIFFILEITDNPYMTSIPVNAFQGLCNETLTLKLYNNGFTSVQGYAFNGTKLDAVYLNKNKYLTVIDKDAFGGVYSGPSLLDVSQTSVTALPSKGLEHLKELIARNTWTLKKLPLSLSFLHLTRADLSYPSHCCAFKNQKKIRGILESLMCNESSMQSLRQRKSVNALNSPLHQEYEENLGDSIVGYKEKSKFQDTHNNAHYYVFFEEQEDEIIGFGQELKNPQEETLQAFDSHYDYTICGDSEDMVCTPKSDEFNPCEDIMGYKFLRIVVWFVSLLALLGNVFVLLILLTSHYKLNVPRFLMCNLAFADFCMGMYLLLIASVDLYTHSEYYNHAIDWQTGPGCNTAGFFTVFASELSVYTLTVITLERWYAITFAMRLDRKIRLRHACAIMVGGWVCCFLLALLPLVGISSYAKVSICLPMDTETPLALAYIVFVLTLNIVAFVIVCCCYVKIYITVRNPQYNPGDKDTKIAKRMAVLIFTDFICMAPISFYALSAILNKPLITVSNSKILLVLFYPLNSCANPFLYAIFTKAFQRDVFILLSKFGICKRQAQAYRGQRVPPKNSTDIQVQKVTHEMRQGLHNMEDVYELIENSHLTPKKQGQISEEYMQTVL
Chain of 99mTc-HYNIC-TR1402, radiolabeled superagonist recombinant human TSH analogue TR1402 (P01215 25-116): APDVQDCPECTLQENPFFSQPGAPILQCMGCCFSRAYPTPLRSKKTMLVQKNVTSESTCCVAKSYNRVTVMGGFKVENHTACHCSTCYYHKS
Chain of 99mTc-HYNIC-TR1402, radiolabeled superagonist recombinant human TSH analogue TR1402 (P01222 21-132): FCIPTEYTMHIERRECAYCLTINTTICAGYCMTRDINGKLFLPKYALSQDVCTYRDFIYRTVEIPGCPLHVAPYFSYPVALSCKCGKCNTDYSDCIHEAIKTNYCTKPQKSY
Chain of 99mTc-HYNIC-TR1401, radiolabeled superagonist recombinant human TSH analogue TR1401 (P01215 25-116): as the sequence (P01215 25-116) above
Chain of 99mTc-HYNIC-TR1401, radiolabeled superagonist recombinant human TSH analogue TR1401 (P01222 21-132): as the sequence (P01222 21-132) above

| Kd | Substance |
| --- | --- |
| 2.7 nM | 99mTc-HYNIC-TR1401, radiolabeled superagonist recombinant human TSH analogue TR1401 (from UniProt P01215 25-116; P01222 21-132) (ligand) |
| 0.5 nM | 99mTc-HYNIC-TR1402, radiolabeled superagonist recombinant human TSH analogue TR1402 (from UniProt P01215 25-116; P01222 21-132) (ligand) |
